Experimental findings from article PMC9201872 are described below.

In test [1] the target is TIM-SNAP-HA (Timeless, S-TIM) (Drosophila melanogaster). In words: native gel or EMSA.
For test [2] the target is unchanged. In words: pull-down.
Test [3] has the same target. In words: pull-down. The source holds these as a separate data set.
Test [4] has the same target. In words: pull-down. The source holds these as a separate data set.

pKd: −log10 of the molar value. Like-named read-outs stand apart in the source and are kept apart here.

Chain of TIM-SNAP-HA (Timeless, S-TIM) (Drosophila melanogaster) (A4V040 whole entry): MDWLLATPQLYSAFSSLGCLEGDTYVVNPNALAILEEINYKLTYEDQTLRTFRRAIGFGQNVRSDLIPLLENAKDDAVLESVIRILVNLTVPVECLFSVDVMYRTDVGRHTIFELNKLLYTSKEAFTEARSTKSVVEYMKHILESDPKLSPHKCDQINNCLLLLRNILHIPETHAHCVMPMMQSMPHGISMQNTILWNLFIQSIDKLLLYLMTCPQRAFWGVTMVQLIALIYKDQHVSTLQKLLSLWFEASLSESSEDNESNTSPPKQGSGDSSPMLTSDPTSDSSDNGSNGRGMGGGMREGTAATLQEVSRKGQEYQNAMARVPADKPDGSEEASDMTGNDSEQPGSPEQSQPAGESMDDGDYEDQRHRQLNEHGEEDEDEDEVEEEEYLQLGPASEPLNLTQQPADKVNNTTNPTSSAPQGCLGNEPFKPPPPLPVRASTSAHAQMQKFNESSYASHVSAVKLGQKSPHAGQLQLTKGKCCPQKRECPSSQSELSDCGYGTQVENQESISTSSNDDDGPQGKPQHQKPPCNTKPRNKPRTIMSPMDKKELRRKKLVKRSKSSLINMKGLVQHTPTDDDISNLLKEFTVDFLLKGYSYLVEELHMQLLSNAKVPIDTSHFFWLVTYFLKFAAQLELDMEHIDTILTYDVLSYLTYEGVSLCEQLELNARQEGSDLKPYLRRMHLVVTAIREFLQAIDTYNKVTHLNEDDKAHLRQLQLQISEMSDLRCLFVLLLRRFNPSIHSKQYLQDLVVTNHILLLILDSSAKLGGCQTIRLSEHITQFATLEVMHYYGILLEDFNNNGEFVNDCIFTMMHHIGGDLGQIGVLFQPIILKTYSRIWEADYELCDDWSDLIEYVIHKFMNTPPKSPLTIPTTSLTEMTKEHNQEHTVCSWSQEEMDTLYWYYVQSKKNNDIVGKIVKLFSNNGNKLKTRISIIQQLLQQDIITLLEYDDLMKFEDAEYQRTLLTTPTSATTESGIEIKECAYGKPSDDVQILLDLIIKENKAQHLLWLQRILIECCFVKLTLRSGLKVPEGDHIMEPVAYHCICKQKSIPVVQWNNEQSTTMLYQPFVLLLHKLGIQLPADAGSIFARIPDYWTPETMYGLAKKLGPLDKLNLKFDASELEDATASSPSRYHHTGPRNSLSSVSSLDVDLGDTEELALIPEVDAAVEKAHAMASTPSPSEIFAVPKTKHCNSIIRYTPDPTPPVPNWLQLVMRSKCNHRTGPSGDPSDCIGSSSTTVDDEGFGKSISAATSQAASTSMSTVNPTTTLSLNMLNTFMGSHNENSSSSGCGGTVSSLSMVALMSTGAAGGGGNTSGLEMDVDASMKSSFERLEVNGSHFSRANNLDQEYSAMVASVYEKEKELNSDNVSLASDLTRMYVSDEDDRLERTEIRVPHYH

The stoichiometry N is the number of molecules, sites or subunits per partner or assembly. A word on the pKd: it is −log10 of the Kd, conventionally taken in molar units. As for “CLIP-CRYΔ (residue 1-520) (from UniProt O77059 1-520) (domain or fragment)”, the stoichiometry N in test [1] came out at 1.08. Further, the pKd in test [2] is 5.77; in test [3] it was 5.82.
As to “CLIP-CRY H377L (from UniProt O77059 1-539) (natural protein)”, the fold greater affinity than CRYΔ in test [4] and in test [2] was 10 fold throughout.
Take “CLIP-CRY W394F (from UniProt O77059 1-539) (natural protein)”: the fold difference in KD against CRYΔ in test [2] was 35 fold.
For “CLIP-CRY H377A (from UniProt O77059 1-539) (natural protein)”, the pKd in test [2] was 4.74.
